± gives the standard deviation of the averaged measurements.
The sequences below were run on Saccharomyces cerevisiae (assay: protein stability index of tFT-peptide fusion (C-terminal peptide) (PSI (0-1 scale)); higher = more stable (slower turnover)). Conditions: genetic background: wild type; temperature: 30 C.
Experimental: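 Multiplexed protein stability (MPS) profiling in S. cerevisiae. Random 12-aa peptides (tFT-X12 library) are fused to the C-terminus of a sfGFP-mCherry tandem fluorescent timer, after mCherry and a GGGS linker. Cells are FACS-sorted into 8 mCherry/sfGFP bins and deep-sequenced. The protein stability index (PSI) is the read-weighted bin average, scaled from 0 (unstable) to 1 (stable). Only peptides with >10 reads are reported; cells were grown at 30 °C in SC-His with glucose.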
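Further: PSI is a weighted mean of sequencing reads over stability bins, variants kept only with over 10 reads, mCherry proximal and sfGFP distal, peptide attached via GGGS linker.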

For CPGVLVLMCGRP, which protein stability index is on record?
The protein stability index was 0.589 ± 0.009.

For CPLLSCAAFLSS, which protein stability index is on record?
The protein stability index was 0.719 ± 0.025.

For CPLLSPTPPLRP, which protein stability index is on record?
Its protein stability index is 0.703 ± 0.019.

Which protein stability index does the source give for CPPLEWSLRYPV here?
Its protein stability index is 0.722 ± 0.017.

CPPRIAFPCGIQ was tested. Which protein stability index did it give?
Its protein stability index is 0.649 ± 0.094.

CPPRPLHSPLPP was tested. Which protein stability index did it give?
Its protein stability index is 0.694 ± 0.022.

With CRGGLGASCRGR as the sequence, how does the protein stability index read?
The protein stability index was 0.67 ± 0.008.

CRGGPLGYGCGS was tested. Which protein stability index did it give?
The protein stability index was 0.827 ± 0.17.

CRGRGGCPMSWR was tested. Which protein stability index did it give?
The protein stability index was 0.689 ± 0.1.

How did the protein stability index turn out when CRGRSGMCNLET was run?
Its protein stability index is 0.751 ± 0.04.

CRGWVRVAGLRA was tested. Which protein stability index did it give?
The protein stability index was 0.604 ± 0.085.

How did the protein stability index turn out when CRKIKFIQKINK was run?
Its protein stability index is 0.623 ± 0.046.

CRLRLVYCVKYD was tested. Which protein stability index did it give?
The protein stability index was 0.621 ± 0.013.

How did the protein stability index turn out when CRMPLFGSYPLG was run?
Its protein stability index is 0.683 ± 0.022.

With CRSNISDLFSSV as the sequence, how does the protein stability index read?
Its protein stability index is 0.7793 ± 0.0063.

CSEDMVGSIVVV was tested. Which protein stability index did it give?
The protein stability index was 0.651 ± 0.041.

CSFFGPGFICSL was tested. Which protein stability index did it give?
The protein stability index was 0.666 ± 0.013.

CSLFIRCAPFCG was tested. Which protein stability index did it give?
Its protein stability index is 0.705 ± 0.017.

For CSLFRCSKVVLG, which protein stability index is on record?
The protein stability index was 0.672 ± 0.037.

How did the protein stability index turn out when CSLGLGGRVAAL was run?
The protein stability index was 0.697 ± 0.048.

With CSLSYFSAHCVP as the sequence, how does the protein stability index read?
The protein stability index was 0.665 ± 0.044.

CSLTVGYNRHDV was tested. Which protein stability index did it give?
The protein stability index was 0.635 ± 0.00084.

For CSLVWPGSMSVD, which protein stability index is on record?
Its protein stability index is 0.738 ± 0.033.

For CSNKIILMTRNN, which protein stability index is on record?
Its protein stability index is 0.564 ± 0.041.

Which protein stability index does the source give for CSPLNFGNGLLL here?
Its protein stability index is 0.584 ± 0.013.

For CSRTIGGFLWDQ, which protein stability index is on record?
The protein stability index was 0.6994 ± 0.0054.

With CSSLPPCPYSLP as the sequence, how does the protein stability index read?
Its protein stability index is 0.654 ± 0.12.

Which protein stability index does the source give for CSSVRRRSWCFS here?
The protein stability index was 0.846 ± 0.16.

For CSTIRDFTIYPP, which protein stability index is on record?
The protein stability index was 0.694 ± 0.11.

With CSVGLPPLPPLH as the sequence, how does the protein stability index read?
Its protein stability index is 0.704 ± 0.076.

How did the protein stability index turn out when CSVVMGFYCRGA was run?
Its protein stability index is 0.694 ± 0.038.

CTGISVFYLFGD was tested. Which protein stability index did it give?
The protein stability index was 0.66 ± 0.033.

CTLSQGLSGSRI was tested. Which protein stability index did it give?
Its protein stability index is 0.6609 ± 0.0024.

For CTLWCIPGCNMR, which protein stability index is on record?
Its protein stability index is 0.666 ± 0.066.

For CTPVLLLRVLGN, which protein stability index is on record?
Its protein stability index is 0.58 ± 0.036.

For CTSCHVWRLSRF, which protein stability index is on record?
The protein stability index was 0.765 ± 0.034.

Which protein stability index does the source give for CVCVCHPPRRFL here?
Its protein stability index is 0.719 ± 0.015.

With CVGLIGVINGGL as the sequence, how does the protein stability index read?
Its protein stability index is 0.558 ± 0.0081.

Which protein stability index does the source give for CVGPSVERGFWG here?
The protein stability index was 0.689 ± 0.031.

With CVGTLSPKTVRT as the sequence, how does the protein stability index read?
Its protein stability index is 0.697 ± 0.024.

Which protein stability index does the source give for CVLGVGVPAGGG here?
The protein stability index was 0.634 ± 0.032.

For CVPPSFRPSLFD, which protein stability index is on record?
Its protein stability index is 0.75 ± 0.015.

How did the protein stability index turn out when CVREDSRPFPAS was run?
Its protein stability index is 0.76 ± 0.044.

For CVSRRRGGEIGG, which protein stability index is on record?
Its protein stability index is 0.655 ± 0.044.

For CVSSALRVPGRE, which protein stability index is on record?
Its protein stability index is 0.699 ± 0.027.

With CVTFGGCGVWYV as the sequence, how does the protein stability index read?
The protein stability index was 0.624 ± 0.018.

Which protein stability index does the source give for CVWFGVGRCCGR here?
The protein stability index was 0.648 ± 0.043.

CVWHELTYGSLY was tested. Which protein stability index did it give?
The protein stability index was 0.66 ± 0.062.

With CWASTFGLGFLP as the sequence, how does the protein stability index read?
The protein stability index was 0.757 ± 0.0022.

CWCRVGSSGCVR was tested. Which protein stability index did it give?
The protein stability index was 0.668 ± 0.039.

How did the protein stability index turn out when CWGAGPRLVRVW was run?
Its protein stability index is 0.4998 ± 0.00039.

For CWLGSIAGLRGR, which protein stability index is on record?
Its protein stability index is 0.7399 ± 0.0064.

For CWPLITTNCTVP, which protein stability index is on record?
The protein stability index was 0.7081 ± 0.0054.

For CYRWVLGVDARV, which protein stability index is on record?
Its protein stability index is 0.649 ± 0.012.

With DAMSTRSRLLTR as the sequence, how does the protein stability index read?
The protein stability index was 0.7109 ± 0.0051.

How did the protein stability index turn out when DASCAPAQYLPI was run?
The protein stability index was 0.673 ± 0.025.

DASGGKKVSRGT was tested. Which protein stability index did it give?
The protein stability index was 0.571.

How did the protein stability index turn out when DCCTGGKCLEVW was run?
The protein stability index was 0.603 ± 0.047.

For DCMSSVFQSPPG, which protein stability index is on record?
The protein stability index was 0.693 ± 0.01.

With DCSCCGGVSCVV as the sequence, how does the protein stability index read?
Its protein stability index is 0.639 ± 0.014.

For DCVWGLERVLLL, which protein stability index is on record?
Its protein stability index is 0.756 ± 0.016.

How did the protein stability index turn out when DCWAGWGLCGGG was run?
Its protein stability index is 0.723 ± 0.042.

How did the protein stability index turn out when DDIGGRKLCVRG was run?
Its protein stability index is 0.6692 ± 0.0028.

With DEKKMEKQTNRT as the sequence, how does the protein stability index read?
The protein stability index was 0.638 ± 0.045.

With DENEKIKKVKVK as the sequence, how does the protein stability index read?
Its protein stability index is 0.754 ± 0.02.

How did the protein stability index turn out when DERVSAQDFLEG was run?
Its protein stability index is 0.6873 ± 0.003.

DEWAGKYLKTIA was tested. Which protein stability index did it give?
The protein stability index was 0.702 ± 0.013.

For DFILVRGWADLR, which protein stability index is on record?
The protein stability index was 0.616 ± 0.059.

Which protein stability index does the source give for DFKHKYREKKKF here?
Its protein stability index is 0.615 ± 0.062.

DFLCHFCVIDEC was tested. Which protein stability index did it give?
The protein stability index was 0.653 ± 0.066.

How did the protein stability index turn out when DFSLRCIAIPRV was run?
Its protein stability index is 0.651 ± 0.046.

For DFVGCSGRGSFV, which protein stability index is on record?
Its protein stability index is 0.72 ± 0.023.

How did the protein stability index turn out when DGASAARQGGAR was run?
The protein stability index was 0.7171 ± 0.00082.

With DGCLMEHSMQVG as the sequence, how does the protein stability index read?
The protein stability index was 0.656 ± 0.035.

DGCRLGDFLNRV was tested. Which protein stability index did it give?
The protein stability index was 0.66 ± 0.042.

With DGGHSFLSVARG as the sequence, how does the protein stability index read?
The protein stability index was 0.644 ± 0.04.

How did the protein stability index turn out when DGGSGQGMLGGS was run?
The protein stability index was 0.628 ± 0.043.

Which protein stability index does the source give for DGGVGGRAPRVR here?
The protein stability index was 0.744 ± 0.097.

Which protein stability index does the source give for DGKTKKKTRSLR here?
The protein stability index was 0.652 ± 0.034.

For DGRMGAGVAGTG, which protein stability index is on record?
Its protein stability index is 0.636 ± 0.069.

For DGRRRHCYTITA, which protein stability index is on record?
The protein stability index was 0.661 ± 0.031.

DGSMRKWGQGVG was tested. Which protein stability index did it give?
Its protein stability index is 0.575 ± 0.067.

Which protein stability index does the source give for DHGRLFSNILIS here?
The protein stability index was 0.645 ± 0.028.

For DHRGSIWWAGSG, which protein stability index is on record?
Its protein stability index is 0.702 ± 0.0034.

With DIERRMEVINNG as the sequence, how does the protein stability index read?
The protein stability index was 0.696 ± 0.032.

Which protein stability index does the source give for DIGSSGRVGGLG here?
Its protein stability index is 0.712 ± 0.031.

DIRGGDMGEWRE was tested. Which protein stability index did it give?
Its protein stability index is 0.683 ± 0.023.

Which protein stability index does the source give for DIVSGGLCVEVL here?
Its protein stability index is 0.643 ± 0.033.

For DIVVGANISSIN, which protein stability index is on record?
The protein stability index was 0.641 ± 0.02.

Which protein stability index does the source give for DKACVHPRTVTG here?
The protein stability index was 0.703 ± 0.07.

For DKATGARGKPPR, which protein stability index is on record?
Its protein stability index is 0.649 ± 0.13.

With DKDWDHGSLCIP as the sequence, how does the protein stability index read?
The protein stability index was 0.692 ± 0.074.

DKKATTSIGIKK was tested. Which protein stability index did it give?
Its protein stability index is 0.642 ± 0.07.

For DKLDKKTLYLRK, which protein stability index is on record?
Its protein stability index is 0.729 ± 0.061.

DKSEINKPTKGK was tested. Which protein stability index did it give?
The protein stability index was 0.675 ± 0.021.

With DKSIGIYIVRSH as the sequence, how does the protein stability index read?
Its protein stability index is 0.731 ± 0.012.

DKVIIRKLRTSK was tested. Which protein stability index did it give?
The protein stability index was 0.6863 ± 0.0051.

Which protein stability index does the source give for DKVKILVGVAGW here?
The protein stability index was 0.607 ± 0.036.

Reference: the supplement of paper PMC10724198
